T1: FcγRIIa(H) (human, UniProt P12318 34-217)
T1 construct: extracellular domain; also called 2aH
T1 sequence: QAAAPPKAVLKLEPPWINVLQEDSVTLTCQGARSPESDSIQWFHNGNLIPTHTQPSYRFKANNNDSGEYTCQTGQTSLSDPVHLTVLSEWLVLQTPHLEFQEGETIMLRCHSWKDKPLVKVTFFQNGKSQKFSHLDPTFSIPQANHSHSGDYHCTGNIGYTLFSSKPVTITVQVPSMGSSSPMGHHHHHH

T2: FcγRIIa(R) (human, UniProt P12318 34-217)
T2 construct: extracellular domain; also called 2aR
T2 sequence: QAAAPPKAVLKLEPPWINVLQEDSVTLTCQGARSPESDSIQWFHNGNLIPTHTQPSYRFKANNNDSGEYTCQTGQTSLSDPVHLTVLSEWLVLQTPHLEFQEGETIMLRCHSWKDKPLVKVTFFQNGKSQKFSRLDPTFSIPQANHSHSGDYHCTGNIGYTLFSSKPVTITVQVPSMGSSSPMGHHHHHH

T3: FcγRIIb (human, UniProt P31994 43-217)
T3 construct: extracellular domain; also called 2b
T3 sequence: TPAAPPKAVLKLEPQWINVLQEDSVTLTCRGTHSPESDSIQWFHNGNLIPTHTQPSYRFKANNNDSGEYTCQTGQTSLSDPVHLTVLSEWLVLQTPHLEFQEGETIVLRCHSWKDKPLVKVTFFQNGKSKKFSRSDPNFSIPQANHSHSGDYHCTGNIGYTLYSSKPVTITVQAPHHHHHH


Columns and labels:
Assay in all cases: SPR, relative to GpH7-A5/GpH7-B3/GpL16-k0 =100
FcγRIIa(H) = biological target: T1, FcγRIIa(H)
FcγRIa = biological target: T4, FcγRIa (human, UniProt P12314 16-292)
T4 construct: extracellular domain; also called 1a
T4 sequence (P12314 other isoform, or with tags, fused parts or gaps): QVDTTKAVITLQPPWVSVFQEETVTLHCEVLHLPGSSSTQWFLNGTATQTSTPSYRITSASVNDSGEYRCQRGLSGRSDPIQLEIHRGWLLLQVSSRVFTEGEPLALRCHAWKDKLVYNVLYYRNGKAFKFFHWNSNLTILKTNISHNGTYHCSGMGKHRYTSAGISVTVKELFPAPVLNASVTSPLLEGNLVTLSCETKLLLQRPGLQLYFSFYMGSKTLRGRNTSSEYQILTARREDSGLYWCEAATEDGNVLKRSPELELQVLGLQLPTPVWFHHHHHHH

FcγRIIa(R) = biological target: T2, FcγRIIa(R)
FcγRIIb = biological target: T3, FcγRIIb

Row | Binder | He/Con 2aH (FcγRIIa(H)) | He/Con 1a (FcγRIa) | He/Con 2aR (FcγRIIa(R)) | He/Con 2b (FcγRIIb)
1 | GpH7-A5/GpH7-B3 variant L328_13S/GpL16-k0 (antibody, human IgG1, kappa, He Ab: heterodimerized IgG1, one H chain mutated) heavy 1: not shown heavy 2: not shown light: DIVMTQSPLSLPVTPGEPASISCQASESLVHSNRNTYLHWYLQKPGQSPQLLIYKVSNRFSGVPDRFSGSGSGTDFTLKISRVEAEDVGVYYCSQNTHVPPTFGQGTKVEIERTVAAPSVFIFPPSDEQLKSGTASVVCLLNNFYPREAKVQWKVDNALQSGNSQESVTEQDSKDSTYSLSSTLTLSKADYEKHKVYACEVTHQGLSSPVTKSFNRGEC | 146% | 101% | 150% | 186%
2 | GpH7-A5/GpH7-B3 variant L328_15Y/GpL16-k0 (antibody, human IgG1, kappa, He Ab: heterodimerized IgG1, one H chain mutated) heavy 1: not shown heavy 2: not shown light: DIVMTQSPLSLPVTPGEPASISCQASESLVHSNRNTYLHWYLQKPGQSPQLLIYKVSNRFSGVPDRFSGSGSGTDFTLKISRVEAEDVGVYYCSQNTHVPPTFGQGTKVEIERTVAAPSVFIFPPSDEQLKSGTASVVCLLNNFYPREAKVQWKVDNALQSGNSQESVTEQDSKDSTYSLSSTLTLSKADYEKHKVYACEVTHQGLSSPVTKSFNRGEC | 106% | 104% | 174% | 240%
3 | GpH7-A5/GpH7-B3 variant L328_14T/GpL16-k0 (antibody, human IgG1, kappa, He Ab: heterodimerized IgG1, one H chain mutated) heavy 1: not shown heavy 2: not shown light: DIVMTQSPLSLPVTPGEPASISCQASESLVHSNRNTYLHWYLQKPGQSPQLLIYKVSNRFSGVPDRFSGSGSGTDFTLKISRVEAEDVGVYYCSQNTHVPPTFGQGTKVEIERTVAAPSVFIFPPSDEQLKSGTASVVCLLNNFYPREAKVQWKVDNALQSGNSQESVTEQDSKDSTYSLSSTLTLSKADYEKHKVYACEVTHQGLSSPVTKSFNRGEC | 138% | 103% | 153% | 176%
4 | GpH7-A5/GpH7-B3 variant L328_19Q/GpL16-k0 (antibody, human IgG1, kappa, He Ab: heterodimerized IgG1, one H chain mutated) heavy 1: not shown heavy 2: not shown light: DIVMTQSPLSLPVTPGEPASISCQASESLVHSNRNTYLHWYLQKPGQSPQLLIYKVSNRFSGVPDRFSGSGSGTDFTLKISRVEAEDVGVYYCSQNTHVPPTFGQGTKVEIERTVAAPSVFIFPPSDEQLKSGTASVVCLLNNFYPREAKVQWKVDNALQSGNSQESVTEQDSKDSTYSLSSTLTLSKADYEKHKVYACEVTHQGLSSPVTKSFNRGEC | 103% | 104% | 115% | 131%
5 | GpH7-A5/GpH7-B3 variant L328_18N/GpL16-k0 (antibody, human IgG1, kappa, He Ab: heterodimerized IgG1, one H chain mutated) heavy 1: not shown heavy 2: not shown light: DIVMTQSPLSLPVTPGEPASISCQASESLVHSNRNTYLHWYLQKPGQSPQLLIYKVSNRFSGVPDRFSGSGSGTDFTLKISRVEAEDVGVYYCSQNTHVPPTFGQGTKVEIERTVAAPSVFIFPPSDEQLKSGTASVVCLLNNFYPREAKVQWKVDNALQSGNSQESVTEQDSKDSTYSLSSTLTLSKADYEKHKVYACEVTHQGLSSPVTKSFNRGEC | 80.6% | 101% | 76.4% | 101%
6 | GpH7-A5/GpH7-B3 variant N325_13S/GpL16-k0 (antibody, human IgG1, kappa, He Ab: heterodimerized IgG1, one H chain mutated) heavy 1: not shown heavy 2: not shown light: DIVMTQSPLSLPVTPGEPASISCQASESLVHSNRNTYLHWYLQKPGQSPQLLIYKVSNRFSGVPDRFSGSGSGTDFTLKISRVEAEDVGVYYCSQNTHVPPTFGQGTKVEIERTVAAPSVFIFPPSDEQLKSGTASVVCLLNNFYPREAKVQWKVDNALQSGNSQESVTEQDSKDSTYSLSSTLTLSKADYEKHKVYACEVTHQGLSSPVTKSFNRGEC | 83% | 102% | 137% | 198%
7 | GpH7-A5/GpH7-B3 variant N325_09D/GpL16-k0 (antibody, human IgG1, kappa, He Ab: heterodimerized IgG1, one H chain mutated) heavy 1: not shown heavy 2: not shown light: DIVMTQSPLSLPVTPGEPASISCQASESLVHSNRNTYLHWYLQKPGQSPQLLIYKVSNRFSGVPDRFSGSGSGTDFTLKISRVEAEDVGVYYCSQNTHVPPTFGQGTKVEIERTVAAPSVFIFPPSDEQLKSGTASVVCLLNNFYPREAKVQWKVDNALQSGNSQESVTEQDSKDSTYSLSSTLTLSKADYEKHKVYACEVTHQGLSSPVTKSFNRGEC | 55.3% | 105% | 111% | 139%
8 | GpH7-A5/GpH7-B3 variant L328_16H/GpL16-k0 (antibody, human IgG1, kappa, He Ab: heterodimerized IgG1, one H chain mutated) heavy 1: not shown heavy 2: not shown light: DIVMTQSPLSLPVTPGEPASISCQASESLVHSNRNTYLHWYLQKPGQSPQLLIYKVSNRFSGVPDRFSGSGSGTDFTLKISRVEAEDVGVYYCSQNTHVPPTFGQGTKVEIERTVAAPSVFIFPPSDEQLKSGTASVVCLLNNFYPREAKVQWKVDNALQSGNSQESVTEQDSKDSTYSLSSTLTLSKADYEKHKVYACEVTHQGLSSPVTKSFNRGEC | 84.5% | 98.5% | 106% | 100%

Other lines, results leading:

Row | He/Con 2aH (FcγRIIa(H)) | He/Con 1a (FcγRIa) | He/Con 2aR (FcγRIIa(R)) | He/Con 2b (FcγRIIb) | Binder
9 | 57.1% | 80.1% | 76% | 60.4% | GpH7-A5/GpH7-B3 variant P329_09D/GpL16-k0 (antibody, human IgG1, kappa, He Ab: heterodimerized IgG1, one H chain mutated) heavy 1: not shown heavy 2: not shown light: DIVMTQSPLSLPVTPGEPASISCQASESLVHSNRNTYLHWYLQKPGQSPQLLIYKVSNRFSGVPDRFSGSGSGTDFTLKISRVEAEDVGVYYCSQNTHVPPTFGQGTKVEIERTVAAPSVFIFPPSDEQLKSGTASVVCLLNNFYPREAKVQWKVDNALQSGNSQESVTEQDSKDSTYSLSSTLTLSKADYEKHKVYACEVTHQGLSSPVTKSFNRGEC
10 | 71.4% | 100% | 94.5% | 81.2% | GpH7-A5/GpH7-B3 variant S298_01G/GpL16-k0 (antibody, human IgG1, kappa, He Ab: heterodimerized IgG1, one H chain mutated) heavy 1: not shown heavy 2: not shown light: DIVMTQSPLSLPVTPGEPASISCQASESLVHSNRNTYLHWYLQKPGQSPQLLIYKVSNRFSGVPDRFSGSGSGTDFTLKISRVEAEDVGVYYCSQNTHVPPTFGQGTKVEIERTVAAPSVFIFPPSDEQLKSGTASVVCLLNNFYPREAKVQWKVDNALQSGNSQESVTEQDSKDSTYSLSSTLTLSKADYEKHKVYACEVTHQGLSSPVTKSFNRGEC
11 | 62.5% | 96.1% | 60.3% | 51.6% | GpH7-A5/GpH7-B3 variant Q295_01G/GpL16-k0 (antibody, human IgG1, kappa, He Ab: heterodimerized IgG1, one H chain mutated) heavy 1: not shown heavy 2: not shown light: DIVMTQSPLSLPVTPGEPASISCQASESLVHSNRNTYLHWYLQKPGQSPQLLIYKVSNRFSGVPDRFSGSGSGTDFTLKISRVEAEDVGVYYCSQNTHVPPTFGQGTKVEIERTVAAPSVFIFPPSDEQLKSGTASVVCLLNNFYPREAKVQWKVDNALQSGNSQESVTEQDSKDSTYSLSSTLTLSKADYEKHKVYACEVTHQGLSSPVTKSFNRGEC
12 | 83.2% | 106% | 82.5% | 65.4% | GpH7-A5/GpH7-B3 variant S298_03V/GpL16-k0 (antibody, human IgG1, kappa, He Ab: heterodimerized IgG1, one H chain mutated) heavy 1: not shown heavy 2: not shown light: DIVMTQSPLSLPVTPGEPASISCQASESLVHSNRNTYLHWYLQKPGQSPQLLIYKVSNRFSGVPDRFSGSGSGTDFTLKISRVEAEDVGVYYCSQNTHVPPTFGQGTKVEIERTVAAPSVFIFPPSDEQLKSGTASVVCLLNNFYPREAKVQWKVDNALQSGNSQESVTEQDSKDSTYSLSSTLTLSKADYEKHKVYACEVTHQGLSSPVTKSFNRGEC
13 | 95.8% | 111% | 104% | 103% | GpH7-A5/GpH7-B3 variant S298_06M/GpL16-k0 (antibody, human IgG1, kappa, He Ab: heterodimerized IgG1, one H chain mutated) heavy 1: not shown heavy 2: not shown light: DIVMTQSPLSLPVTPGEPASISCQASESLVHSNRNTYLHWYLQKPGQSPQLLIYKVSNRFSGVPDRFSGSGSGTDFTLKISRVEAEDVGVYYCSQNTHVPPTFGQGTKVEIERTVAAPSVFIFPPSDEQLKSGTASVVCLLNNFYPREAKVQWKVDNALQSGNSQESVTEQDSKDSTYSLSSTLTLSKADYEKHKVYACEVTHQGLSSPVTKSFNRGEC
14 | 74.3% | 103% | 87.2% | 74.4% | GpH7-A5/GpH7-B3 variant S298_02A/GpL16-k0 (antibody, human IgG1, kappa, He Ab: heterodimerized IgG1, one H chain mutated) heavy 1: not shown heavy 2: not shown light: DIVMTQSPLSLPVTPGEPASISCQASESLVHSNRNTYLHWYLQKPGQSPQLLIYKVSNRFSGVPDRFSGSGSGTDFTLKISRVEAEDVGVYYCSQNTHVPPTFGQGTKVEIERTVAAPSVFIFPPSDEQLKSGTASVVCLLNNFYPREAKVQWKVDNALQSGNSQESVTEQDSKDSTYSLSSTLTLSKADYEKHKVYACEVTHQGLSSPVTKSFNRGEC
15 | 57.6% | 81.4% | 72.7% | 59.5% | GpH7-A5/GpH7-B3 variant P329_10E/GpL16-k0 (antibody, human IgG1, kappa, He Ab: heterodimerized IgG1, one H chain mutated) heavy 1: not shown heavy 2: not shown light: DIVMTQSPLSLPVTPGEPASISCQASESLVHSNRNTYLHWYLQKPGQSPQLLIYKVSNRFSGVPDRFSGSGSGTDFTLKISRVEAEDVGVYYCSQNTHVPPTFGQGTKVEIERTVAAPSVFIFPPSDEQLKSGTASVVCLLNNFYPREAKVQWKVDNALQSGNSQESVTEQDSKDSTYSLSSTLTLSKADYEKHKVYACEVTHQGLSSPVTKSFNRGEC
16 | 75.5% | 106% | 80.4% | 66.3% | GpH7-A5/GpH7-B3 variant S298_04F/GpL16-k0 (antibody, human IgG1, kappa, He Ab: heterodimerized IgG1, one H chain mutated) heavy 1: not shown heavy 2: not shown light: DIVMTQSPLSLPVTPGEPASISCQASESLVHSNRNTYLHWYLQKPGQSPQLLIYKVSNRFSGVPDRFSGSGSGTDFTLKISRVEAEDVGVYYCSQNTHVPPTFGQGTKVEIERTVAAPSVFIFPPSDEQLKSGTASVVCLLNNFYPREAKVQWKVDNALQSGNSQESVTEQDSKDSTYSLSSTLTLSKADYEKHKVYACEVTHQGLSSPVTKSFNRGEC
